From patent US20240117074A1 (published 2024)

Assays:
[1] = target: T1, human CEACAM5, recombinant soluble (hCEACAM-5, R&D Systems #4128-CM-050) (human, UniProt P06731 35-685); experiment: dual target ELISA: CEACAM5 coated, biotinylated hCD40-muIg detection
T1 construct: Bought protein; also called Human CEACAM5-His; monomeric human CEACAM5-His
T1 sequence (looked up): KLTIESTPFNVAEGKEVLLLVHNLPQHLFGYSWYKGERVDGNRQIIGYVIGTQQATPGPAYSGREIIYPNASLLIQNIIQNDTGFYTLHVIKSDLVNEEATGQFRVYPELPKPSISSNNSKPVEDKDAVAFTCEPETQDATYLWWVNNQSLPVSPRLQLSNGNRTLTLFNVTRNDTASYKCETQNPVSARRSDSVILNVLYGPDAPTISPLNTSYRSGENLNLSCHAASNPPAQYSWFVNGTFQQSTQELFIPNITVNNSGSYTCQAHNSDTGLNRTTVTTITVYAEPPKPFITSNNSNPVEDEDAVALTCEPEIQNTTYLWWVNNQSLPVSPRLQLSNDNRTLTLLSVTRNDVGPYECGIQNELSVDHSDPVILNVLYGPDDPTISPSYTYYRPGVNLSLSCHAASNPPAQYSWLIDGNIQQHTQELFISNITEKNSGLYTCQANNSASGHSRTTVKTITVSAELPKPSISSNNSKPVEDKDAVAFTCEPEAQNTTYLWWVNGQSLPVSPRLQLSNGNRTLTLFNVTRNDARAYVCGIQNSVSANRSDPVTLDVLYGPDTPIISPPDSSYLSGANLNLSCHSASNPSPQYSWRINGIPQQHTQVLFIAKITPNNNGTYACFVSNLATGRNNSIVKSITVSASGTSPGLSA
Experimental: (§1) ELISA plates were coated with human EpCAM, bsAb was added followed by detection using goat anti human-kappa light chain-HRP.
(§2) 96-well plates were coated with 0.5 μg/mL antigen, hCEACAM-1 (2244-CM-050, R&D Systems), hCEACAM-5 (4128-CM-050, R&D Systems), hCEACAM-6 (3934-CM-050, R&D Systems) or CEACAM-8 (9639-CM-050, R&D Systems) in PBS over night at 4° C. After washing in PBS/0.05% Tween 20 (PBST), the plates were blocked with PBST, 2% BSA for at least 30 minutes at room temperature before a second round of washing. RUBY bsAbs, diluted in PBST, 0.5% BSA, were then added and allowed to bind for at least 1 hour at room temperature. […] Finally, a final round of washing was performed and bound complexes detected using SuperSignal Pico Luminescent as substrate and luminescence signals were measured using Fluostar Optima.

[2] = target: CD40 expressed on cells (CD40 reporter cells, HEK Blue CD40L cells, primary B cells, tumor APCs) (human, UniProt P25942 21-277); experiment: cell-based or functional assay
Sequence of CD40 expressed on cells (CD40 reporter cells, HEK Blue CD40L cells, primary B cells, tumor APCs) (P25942 21-277): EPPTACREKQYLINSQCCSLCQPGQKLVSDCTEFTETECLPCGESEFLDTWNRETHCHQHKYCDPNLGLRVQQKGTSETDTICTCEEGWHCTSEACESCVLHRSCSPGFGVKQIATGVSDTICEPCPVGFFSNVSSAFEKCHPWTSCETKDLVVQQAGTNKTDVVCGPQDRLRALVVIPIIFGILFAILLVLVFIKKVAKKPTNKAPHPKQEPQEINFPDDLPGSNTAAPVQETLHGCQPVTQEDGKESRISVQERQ

[3] = target: T1, human CEACAM5, recombinant soluble …; experiment: Octet BLI, captured bsAb, soluble antigen
[4] = target: T1, human CEACAM5, recombinant soluble …; experiment: Octet BLI, captured bsAb, monomeric CEACAM5 in solution
[5] = target: T2, monomeric Cynomolgus CEACAM5-His (Sino Biological #90891-C08H) (cynomolgus); experiment: Octet BLI, captured bsAb, soluble antigen
T2 chain: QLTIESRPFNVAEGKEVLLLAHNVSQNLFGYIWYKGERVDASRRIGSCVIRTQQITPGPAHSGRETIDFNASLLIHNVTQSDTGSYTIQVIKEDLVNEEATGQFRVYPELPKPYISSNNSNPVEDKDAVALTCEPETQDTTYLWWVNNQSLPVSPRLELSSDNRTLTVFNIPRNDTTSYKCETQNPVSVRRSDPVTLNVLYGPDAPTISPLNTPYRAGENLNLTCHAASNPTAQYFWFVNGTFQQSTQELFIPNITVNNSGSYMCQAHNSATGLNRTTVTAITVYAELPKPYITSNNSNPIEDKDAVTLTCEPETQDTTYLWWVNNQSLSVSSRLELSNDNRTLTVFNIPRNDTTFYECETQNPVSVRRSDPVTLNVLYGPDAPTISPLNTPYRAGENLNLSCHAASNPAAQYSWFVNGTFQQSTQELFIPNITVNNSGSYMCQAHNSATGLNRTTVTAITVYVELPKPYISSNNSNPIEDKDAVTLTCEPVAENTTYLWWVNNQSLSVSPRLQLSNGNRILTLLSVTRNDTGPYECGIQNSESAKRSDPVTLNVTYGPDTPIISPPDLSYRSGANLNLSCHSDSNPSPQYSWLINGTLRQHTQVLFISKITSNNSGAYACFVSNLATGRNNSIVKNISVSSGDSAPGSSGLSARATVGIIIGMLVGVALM

[6] = target: T3, human CEACAM1, recombinant soluble (hCEACAM-1, R&D Systems #2244-CM-050) (human, UniProt P13688 35-428); experiment: ELISA, coated CEACAM family protein
T3 sequence (looked up): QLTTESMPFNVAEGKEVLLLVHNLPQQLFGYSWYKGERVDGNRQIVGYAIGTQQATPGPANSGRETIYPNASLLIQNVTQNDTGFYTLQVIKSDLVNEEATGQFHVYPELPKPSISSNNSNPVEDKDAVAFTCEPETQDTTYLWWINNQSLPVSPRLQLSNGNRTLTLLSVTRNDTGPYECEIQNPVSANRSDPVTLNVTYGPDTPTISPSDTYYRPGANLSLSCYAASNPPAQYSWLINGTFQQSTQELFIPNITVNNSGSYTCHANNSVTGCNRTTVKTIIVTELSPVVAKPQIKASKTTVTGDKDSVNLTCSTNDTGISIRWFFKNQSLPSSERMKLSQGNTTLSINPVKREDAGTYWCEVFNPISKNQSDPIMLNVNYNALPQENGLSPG
Experimental: as §2

[7] = target: T4, human CEACAM6, recombinant soluble (hCEACAM-6, R&D Systems #3934-CM-050) (human, UniProt P40199 35-320); experiment: ELISA, coated CEACAM family protein
T4 sequence (looked up): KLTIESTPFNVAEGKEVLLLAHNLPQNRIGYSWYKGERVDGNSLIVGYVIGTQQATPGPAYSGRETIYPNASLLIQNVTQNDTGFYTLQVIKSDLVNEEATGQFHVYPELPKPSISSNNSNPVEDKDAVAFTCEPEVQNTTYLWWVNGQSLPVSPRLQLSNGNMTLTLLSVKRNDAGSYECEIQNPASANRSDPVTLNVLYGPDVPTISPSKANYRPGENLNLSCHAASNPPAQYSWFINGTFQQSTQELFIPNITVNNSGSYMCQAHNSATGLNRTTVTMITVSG
Experimental: as §2

[8] = target: T5, CEACAM8, recombinant soluble (CEACAM-8, R&D Systems #9639-CM-050) (UniProt P31997 35-320, limits assumed); experiment: ELISA, coated CEACAM family protein
T5 sequence (looked up): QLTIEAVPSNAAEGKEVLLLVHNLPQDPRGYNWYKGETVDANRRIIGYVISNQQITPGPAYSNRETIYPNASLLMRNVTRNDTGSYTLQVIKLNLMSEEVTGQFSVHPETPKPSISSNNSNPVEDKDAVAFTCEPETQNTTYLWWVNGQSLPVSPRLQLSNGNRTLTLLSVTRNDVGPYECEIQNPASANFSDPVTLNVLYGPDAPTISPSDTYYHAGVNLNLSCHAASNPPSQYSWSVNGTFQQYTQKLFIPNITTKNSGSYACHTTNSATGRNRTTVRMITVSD
Experimental: as §2

[9] = target: T6, biotinylated human CD40-mouse Fc (Ancell #504-030) (human, UniProt P25942 21-193, biotinylated); experiment: dual target ELISA: CEACAM5 coated, biotinylated hCD40-muIg detection
T6 construct: Bought fusion protein; also called hCD40-muIg; CD40mFc-biotin; not shown: mouse Ig Fc of the bought fusion protein
T6 sequence (P25942 21-193): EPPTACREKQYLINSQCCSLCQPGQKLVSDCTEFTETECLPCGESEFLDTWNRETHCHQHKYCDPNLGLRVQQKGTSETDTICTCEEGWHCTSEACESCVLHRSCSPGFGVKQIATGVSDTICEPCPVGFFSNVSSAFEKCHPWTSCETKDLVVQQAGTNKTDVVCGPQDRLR
Experimental: as §1, §2

B1: Multi39 (bispecific antibody)
heavy 1: not shown
light: not shown
heavy 2: EVQLLESGGGLVQPGGSLRLSCAASGFTFYDHAMSWVREAPGKGLEWVSAISGSYGSTGYADSVKGRFTISRDNSKNTLYLQMNSLRAEDTAVYYCARWGGWAGDIDYWGQGTLVTVSSASTKGPSVFPLAPSSKSTSGGTAALGCLVKDYFPEPVTVSWNSGALTSGVHTFPAVLQSSGLYSLTSVVEVPSSSLGTQTYICNVNHKPSNTKVDKKVEPKSC
notes: copies: 2 + 2 + 2
binding result [1]: binds

B2: AC_05339 (bispecific antibody)
chain 1: not shown
chain 2: DIQMTQSPSSLSASVGDRVTITCRASQSISSYLNWYQEKPGKAPKLLIYAASSLQSGVPSRFSGSGSGTDFTLTISSLQPEDFATYYCQQAGNPHTFGQGTKLEIKRTVAAPSVFIFPPSDEQLKSGTASVVCYLNNFYPREAKVQWKVDNALQSGNSQESVTEQDSKDSTYSLWSTLTLSKADYEKHKVYACEVTHQGLSSPVTKSFNRGEC
chain 3: EVQLLESGGGLVQPGGSLRLSCAASGFTFSTYGMHWVREAPGKGLEWLSYISGGSSYIFYADSVKGRFTISRDNSKNTLYLQMNSLRAEDTAVYYCARILRGGSGMDLWGQGTLVTVSSASTKGPSVFPLAPSSKSTSGGTAALGCLVKDYFPEPVTVSWNSGALTSGVHTFPAVLQSSGLYSLTSVVEVPSSSLGTQTYICNVNHKPSNTKVDKKVEPKSC
EC50 of HEK Blue CD40L reporter activation (SEAP), CHO-CEACAM5 crosslinking, 0 Raji sink cells/well [2]: 0.03 nM
EC50 of HEK Blue CD40L reporter activation (SEAP), CHO-CEACAM5 crosslinking, 10 000 Raji sink cells/well [2]: 0.05 nM
EC50 of HEK Blue CD40L reporter activation (SEAP), CHO-CEACAM5 crosslinking, 30 000 Raji sink cells/well [2]: 0.08 nM
EC50 of HEK Blue CD40L reporter activation (SEAP), CHO-CEACAM5 crosslinking, 90 000 Raji sink cells/well [2]: 0.23 nM
Kd [3]: < 0.001 nM
koff [3]: < 1e-07 s⁻¹
kon [3]: 520000 M⁻¹ s⁻¹
Kd [4]: 1.8 nM
koff [4]: 0.00042 s⁻¹
kon [4]: 240000 M⁻¹ s⁻¹

B3: AC_05355 (bispecific antibody)
chain 1: not shown
chain 2: DIQMTQSPSSLSASVGDRVTITCRASENIFSYLAWYQEKPGKAPKLLIYNTRTLQSGVPSRFSGSGSGTDFTLTISSLQPEDFATYYCQHHYGTPFTFGQGTKLEIKRTVAAPSVFIFPPSDEQLKSGTASVVCYLNNFYPREAKVQWKVDNALQSGNSQESVTEQDSKDSTYSLWSTLTLSKADYEKHKVYACEVTHQGLSSPVTKSFNRGEC
chain 3: EVQLLESGGGLVQPGGSLRLSCAASGFTFSTYGMHWVREAPGKGLEWLSYISGGSSYIFYADSVKGRFTISRDNSKNTLYLQMNSLRAEDTAVYYCARILRGGSGMDLWGQGTLVTVSSASTKGPSVFPLAPSSKSTSGGTAALGCLVKDYFPEPVTVSWNSGALTSGVHTFPAVLQSSGLYSLTSVVEVPSSSLGTQTYICNVNHKPSNTKVDKKVEPKSC
Kd [5]: 20 nM
koff [5]: 0.0038 s⁻¹
kon [5]: 190000 M⁻¹ s⁻¹
Kd [3]: 1 nM
koff [3]: 0.00053 s⁻¹
kon [3]: 510000 M⁻¹ s⁻¹

B4: Multi48 (bispecific antibody)
heavy 1: not shown
light: DIQMTQSPSSLSASVGDRVTITCRASQSISSYLNWYQEKPGKAPKLLIYAASSLQSGVPSRFSGSGSGTDFTLTISSLQPEDFATYYCQQYGRNPPTFGQGTKLEIKRTVAAPSVFIFPPSDEQLKSGTASVVCYLNNFYPREAKVQWKVDNALQSGNSQESVTEQDSKDSTYSLWSTLTLSKADYEKHKVYACEVTHQGLSSPVTKSFNRGEC
heavy 2: EVQLLESGGGLVQPGGSLRLSCAASGFTFGDHAMSWVREAPGKGLEWVSAISGYGHSTGYADSVKGRFTISRDNSKNTLYLQMNSLRAEDTAVYYCARNHYRVGLDYWGQGTLVTVSSASTKGPSVFPLAPSSKSTSGGTAALGCLVKDYFPEPVTVSWNSGALTSGVHTFPAVLQSSGLYSLTSVVEVPSSSLGTQTYICNVNHKPSNTKVDKKVEPKSC
notes: copies: 2 + 2 + 2
binding result [6]: no binding
binding result [7]: no binding
binding result [8]: no binding
binding result [9]: binds
